# ± gives the standard deviation of the averaged measurements.
# What was measured:
# [1] = system: Saccharomyces cerevisiae; experiment: protein stability index of tFT-peptide fusion (C-terminal peptide) (PSI (0-1 scale)); higher = more stable (slower turnover); conditions: genetic background: wild type; temperature: 30 C
# [2] = system: Saccharomyces cerevisiae; experiment: as above
# Description: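 MPS profiling in S. cerevisiae of the tFT-X12 degron library: putative degron peptides plus stable controls, 12 aa, fused to the C-terminus of a sfGFP-mCherry timer. Cells are FACS-sorted into 8 mCherry/sfGFP bins and deep-sequenced. PSI runs from 0 (unstable) to 1 (stable). Backgrounds are wild type, das1Δ and doa10Δ at 30 °C, and wild type, das1Δ, cdc34-1 and cdc53-1 at 37 °C; 2-3 technical replicates each.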
# [3] = genetic background: cdc34-1, temperature: 37 C
# [4] = genetic background: cdc53-1, temperature: 37 C
# [5] = genetic background: das1 deletion, temperature: 30 C
# [6] = genetic background: das1 deletion, temperature: 37 C
# [7] = genetic background: doa10 deletion, temperature: 30 C
# [8] = genetic background: wild type, temperature: 30 C
# [9] = genetic background: wild type, temperature: 37 C
# 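Also: PSI is a weighted mean of sequencing reads over stability bins, variants kept only with over 10 reads, mCherry proximal and sfGFP distal, peptide attached via GGGS linker.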
Sequence,protein stability index [1],"protein stability index [2, 3]","protein stability index [2, 4]","protein stability index [2, 5]","protein stability index [2, 6]","protein stability index [2, 7]","protein stability index [2, 8]","protein stability index [2, 9]"
LFAIFLVVLLFR,0.219 ± 0.054,0.106 ± 0.016,0.089 ± 0.0072,0.195 ± 0.03,0.273 ± 0.0081,0.297 ± 0.0092,0.201 ± 0.028,0.2089 ± 0.0002
LFFPLPGILSFF,0.523 ± 0.046,0.76 ± 0.027,0.771 ± 0.022,0.631 ± 0.022,0.7783 ± 0.0029,0.484 ± 0.0073,0.498 ± 0.02,0.676 ± 0.033
LFFWVLTVMFVW,0.302 ± 0.046,0.162 ± 0.025,0.23 ± 0.0048,0.224 ± 0.013,0.3199 ± 0.00034,0.222 ± 0.011,0.195 ± 0.015,0.283 ± 0.015
LFGRVLSGILSV,0.523 ± 0.06,0.687 ± 0.04,0.721 ± 0.015,0.567 ± 0.019,0.702 ± 0.028,0.474 ± 0.014,0.524 ± 0.037,0.68 ± 0.011
LFLLSHYALCFY,0.3967 ± 0.0035,0.523 ± 0.0055,0.53 ± 0.018,0.441 ± 0.018,0.593 ± 0.028,0.333 ± 0.0045,0.336 ± 0.017,0.527 ± 0.012
LFLSFLLFVLAF,0.388 ± 0.042,0.434 ± 0.023,0.444 ± 0.015,0.319 ± 0.029,0.471 ± 0.036,0.302 ± 0.0039,0.312 ± 0.045,0.425 ± 0.0086
LFLSIFFFHLLF,0.37 ± 0.033,0.314 ± 0.023,0.251 ± 0.049,0.338 ± 0.041,0.4359 ± 0.0036,0.439 ± 0.045,0.313 ± 0.01,0.385 ± 0.041
LFPVFFPLFAPA,0.322 ± 0.03,0.285 ± 0.029,0.336 ± 0.035,0.266 ± 0.034,0.404 ± 0.018,0.206 ± 0.013,0.271 ± 0.018,0.36504 ± 0.00017
LFSCTQLLPITA,0.245 ± 0.032,0.0614 ± 0.017,0.077 ± 0.012,0.173 ± 0.02,0.198 ± 0.0068,0.141 ± 0.013,0.176 ± 0.018,0.166 ± 0.0061
LFSIFMSYRVYI,0.411 ± 0.02,0.35 ± 0.037,0.435 ± 0.021,0.383 ± 0.07,0.486 ± 0.017,0.302 ± 0.03,0.312 ± 0.0037,0.44 ± 0.031
LFSTRRWISVCA,0.0789 ± 0.016,0.0208 ± 0.0016,0.0362 ± 0.013,0.134 ± 0.035,0.127 ± 0.011,0.0486 ± 0.012,0.054 ± 0.0027,0.0577 ± 0.015
LFSVLVFIYFVM,0.127 ± 0.022,0.102 ± 0.032,0.113 ± 0.017,0.169 ± 0.034,0.288 ± 0.07,0.17 ± 0.016,0.133 ± 0.0054,0.217 ± 0.025
LFTSGNSLVLVH,0.365 ± 0.0042,0.21126 ± 0.00018,0.257 ± 0.02,0.236 ± 0.037,0.3909 ± 0.00093,0.202 ± 0.0086,0.25 ± 0.034,0.362 ± 0.0076
LFYVSFLFMLLF,0.378 ± 0.01,0.359 ± 0.084,0.34751 ± 0.00024,0.363 ± 0.036,0.459 ± 0.025,0.396 ± 0.0059,0.325 ± 0.013,0.447 ± 0.029
LGALFGRFWWYF,0.42 ± 0.027,0.664 ± 0.024,0.7416 ± 0.0074,0.654 ± 0.01,0.795 ± 0.013,0.278 ± 0.012,0.291 ± 0.023,0.541 ± 0.016
LGCLVWGGVWGV,0.479 ± 0.019,0.706 ± 0.04,0.7595 ± 0.00079,0.625 ± 0.0078,0.737 ± 0.025,0.628 ± 0.021,0.638 ± 0.016,0.727 ± 0.041
LGFSHTRAIFFV,0.307 ± 0.011,0.651 ± 0.039,0.7312 ± 0.0055,0.605 ± 0.012,0.724 ± 0.0022,0.186 ± 0.01,0.213 ± 0.0094,0.396 ± 0.0071
LGGCVSYINLLA,0.308 ± 0.026,0.592 ± 0.032,0.682 ± 0.018,0.594 ± 0.022,0.6997 ± 0.0013,0.197 ± 0.024,0.236 ± 0.015,0.3917 ± 0.0035
LGRFHLACLLFL,0.43 ± 0.048,0.588 ± 0.013,0.61417 ± 0.00036,0.486 ± 0.028,0.6113 ± 0.004,0.41 ± 0.0065,0.412 ± 0.035,0.543 ± 0.014
LGVLVVAFCGGC,0.409 ± 0.031,0.488 ± 0.041,0.554 ± 0.0076,0.354 ± 0.034,0.541 ± 0.0069,0.325 ± 0.017,0.347 ± 0.023,0.5327 ± 0.00083

Sequence,protein stability index [1],"protein stability index [2, 3]","protein stability index [2, 4]","protein stability index [2, 5]","protein stability index [2, 6]","protein stability index [2, 7]","protein stability index [2, 8]","protein stability index [2, 9]"
LIICRSFLCKVR,0.3 ± 0.01,0.236 ± 0.026,0.2557 ± 0.0016,0.193 ± 0.029,0.369 ± 0.0059,0.16 ± 0.0049,0.174 ± 0.023,0.317 ± 0.0052
LILIVVVAGSVG,0.269 ± 0.038,0.201 ± 0.019,0.392 ± 0.088,0.226 ± 0.027,0.437 ± 0.0066,0.206 ± 0.014,0.23 ± 0.013,0.385 ± 0.015
LIMIRLLYLRLI,0.102 ± 0.035,0.166 ± 0.15,0.153 ± 0.042,0.269 ± 0.029,0.365 ± 0.022,0.105 ± 0.017,0.0628 ± 0.033,0.102 ± 0.0037
LINHSWLLLSVL,0.325 ± 0.035,0.368 ± 0.017,0.432 ± 0.036,0.363 ± 0.038,0.521 ± 0.026,0.14246 ± 3.7e-05,0.133 ± 0.018,0.1583 ± 0.00095
LLCSLGFRFSLF,0.377 ± 0.034,0.651 ± 0.033,0.728 ± 0.011,0.651 ± 0.019,0.725 ± 0.019,0.289 ± 0.0056,0.328 ± 0.044,0.546 ± 0.038
LLFGCLIRIGCS,0.35 ± 0.051,0.268 ± 0.017,0.307 ± 0.012,0.244 ± 0.048,0.403 ± 0.021,0.225 ± 0.0046,0.253 ± 0.03,0.3638 ± 0.00063
LLILSVRPFVFV,0.43 ± 0.0067,0.479 ± 0.0094,0.52 ± 0.0072,0.397 ± 0.032,0.544 ± 0.0068,0.3727 ± 0.0033,0.367 ± 0.025,0.515 ± 0.022
LLLALLFWPCPI,0.473 ± 0.02,0.5178 ± 0.0016,0.526 ± 0.0074,0.402 ± 0.028,0.559 ± 0.037,0.396 ± 0.024,0.39 ± 0.038,0.518 ± 0.021
LLLIGISFLIFY,0.352 ± 0.05,0.184 ± 0.048,0.287 ± 0.0035,0.208 ± 0.029,0.385 ± 0.008,0.199 ± 0.025,0.21 ± 0.025,0.335 ± 0.052
LLLTAIRVLRMH,0.169 ± 0.056,0.561 ± 0.016,0.7045 ± 0.0038,0.587 ± 0.021,0.7177 ± 0.0014,0.118 ± 0.0018,0.149 ± 0.037,0.217 ± 0.033
LLLVCYSTFIVA,0.313 ± 0.026,0.287 ± 0.057,0.359 ± 0.045,0.254 ± 0.04,0.3813 ± 0.0031,0.251 ± 0.011,0.28 ± 0.014,0.364 ± 0.0041
LLLVPLLAFSAS,0.521 ± 0.035,0.56 ± 0.054,0.63 ± 0.029,0.473 ± 0.034,0.6084 ± 0.0031,0.462 ± 0.027,0.46 ± 0.019,0.598 ± 0.015
LLMFWLSIWFWG,0.32 ± 0.035,0.22 ± 0.0092,0.292 ± 0.0066,0.245 ± 0.047,0.374 ± 0.008,0.268 ± 0.023,0.233 ± 0.037,0.3551 ± 0.0028
LLPYSLSLALRA,0.412 ± 0.0096,0.395 ± 0.0049,0.391 ± 0.015,0.314 ± 0.048,0.468 ± 0.0073,0.2604 ± 0.0023,0.28 ± 0.027,0.429 ± 0.015
LLSFSQLGYFVL,0.212 ± 0.04,0.634 ± 0.056,0.716 ± 0.012,0.633 ± 0.034,0.738 ± 0.023,0.13 ± 0.0051,0.152 ± 0.039,0.335 ± 0.027
LLSGHFRLLLAF,0.136 ± 0.029,0.0523 ± 0.014,0.149 ± 0.007,0.178 ± 0.02,0.23 ± 0.013,0.0793 ± 0.0067,0.0945 ± 0.014,0.108 ± 0.02
LLVCLGYFLFLG,0.403 ± 0.0091,0.37 ± 0.025,0.372 ± 0.031,0.313 ± 0.024,0.484 ± 0.055,0.338 ± 0.0061,0.288 ± 0.051,0.453 ± 0.022
LNVEEGGGLENV,0.536 ± 0.1,0.698 ± 0.043,0.727 ± 0.023,0.631 ± 0.026,0.719 ± 0.024,0.661 ± 0.044,0.637 ± 0.044,0.699 ± 0.018
LPHPLPFCFSLY,0.515 ± 0.062,0.711 ± 0.024,0.7672 ± 0.0058,0.672 ± 0.0085,0.7781 ± 0.0021,0.4271 ± 0.0037,0.451 ± 0.025,0.6683 ± 0.0063
